Experimental data reported in IntAct's records for PubMed 18056643.

B1: Tyrosine-protein phosphatase non-receptor type 22 (Homo sapiens), Q9Y2R2 (parent)
chain: MDQREILQKFLDEAQSKKITKEEFANEFLKLKRQSTKYKADKTYPTTVAEKPKNIKKNRYKDILPYDYSRVELSLITSDEDSSYINANFIKGVYGPKAYIATQGPLSTTLLDFWRMIWEYSVLIIVMACMEYEMGKKKCERYWAEPGEMQLEFGPFSVSCEAEKRKSDYIIRTLKVKFNSETRTIYQFHYKNWPDHDVPSSIDPILELIWDVRCYQEDDSVPICIHCSAGCGRTGVICAIDYTWMLLKDGIIPENFSVFSLIREMRTQRPSLVQTQEQYELVYNAVLELFKRQMDVIRDKHSGTESQAKHCIPEKNHTLQADSYSPNLPKSTTKAAKMMNQQRTKMEIKESSSFDFRTSEISAKEELVLHPAKSSTSFDFLELNYSFDKNADTTMKWQTKAFPIVGEPLQKHQSLDLGSLLFEGCSNSKPVNAAGRYFNSKVPITRTKSTPFELIQQRETKEVDSKENFSYLESQPHDSCFVEMQAQKVMHVSSAELNYSLPYDSKHQIRNASNVKHHDSSALGVYSYIPLVENPYFSSWPPSGTSSKMSLDLPEKQDGTVFPSSLLPTSSTSLFSYYNSHDSLSLNSPTNISSLLNQESAVLATAPRIDDEIPPPLPVRTPESFIVVEEAGEFSPNVPKSLSSAVKVKIGTSLEWGGTSEPKKFDDSVILRPSKSVKLRSPKSELHQDRSSPPPPLPERTLESFFLADEDCMQAQSIETYSTSYPDTMENSTSSKQTLKTPGKSFTRSKSLKILRNMKKSICNSCPPNKPAESVQSNNSSSFLNFGFANRFSKPKGPRNPPPTWNI

Variants of: B1
Conditions: with kpcd_human PRKCD

Row | Variant | effect of a mutation on the interaction
1 | S35E | decreasing interaction
